Experimental data reported in patent US20180273635A1 (Zymeworks, published 2018).

Tests used:
[1] = biological target: T1, Recombinant human HER2 (human, UniProt P04626 23-652); experiment: SPR, Biacore T200, 25 C; variant captured on anti-human Fc, HER2 flowed;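 further: HER2 extracellular domain analyte run as duplicate dilutions over amine-coupled anti-Fc on a CM5 chip, rates from global sensorgram fitting with a 1:1 Langmuir model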
T1 construct: extracellular domain; Analyte of the SPR assays; also called HER2 ECD; ECD2 of HER2
Procedure: (§1) The affinity towards HER2 ECD of the samples was measured by SPR on a Biacore T200 as follows. Between 2000 and 4000 RU of anti-human Fc injected at concentration between 5 and 10 μg/ml was immobilized on a CM5 chip using standard amine coupling. Antigen-binding constructs were captured on the anti-human Fc (injected at concentration at 0.51 microg/mL in PBST, 1 min at 10 microl/min) at response levels ranging from 120-270 RU. […] HER2 dilutions were analyzed in duplicates. Sensograms were fit globally to a 1: 1 Langmuir binding model, using the software provided with the Biacore T200. All experiments were conducted at 25° C.

[2] = biological target: T1, Recombinant human HER2; experiment: calculated from the SPR Ka ratio to WT v10013;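 further: SPR at 25 °C with constructs captured on an anti-human Fc chip and HER2 extracellular domain as analyte, kinetics fitted to a 1:1 Langmuir model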
[3] = biological target: T1, Recombinant human HER2; experiment: SPR, 25 C; Ka ratio to WT v10013;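 further: constructs captured via anti-human Fc on CM5 chip, HER2 ECD as analyte in duplicate dilutions, sensorgrams globally fit to 1:1 Langmuir model on Biacore T200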
Procedure: as §1

Binder | Kd [1] [nM] | koff [1] [s⁻¹] | kon [1] [M⁻¹ s⁻¹] | ΔΔG [2] [kcal/mol] | Ka, mut/Ka, WT [3] [fold]
Variant 14039 (antibody, human IgG1, kappa, OA (one-armed) format; clones 7813, 7919, 4372; also called v14039) heavy: EVQLVESGGGLVQPGGSLRLSCAASGFTFYDYTMDWVRQAPGKGLEWVADVNPNSGGSIYNQRFKGRFTLSVDRSKNTLYLQMNSLRAEDTAVYYCARNLGPSFYFDYWGQGTLVTVSSASTKGPSVFPLAPSSKSTSGGTAALGCLVKDYFPEPVTVSWNSGALTSGVHTFPAVLQSSGLYSLSSVVTVPSSSLGTQTYICNVNHKPSNTKVDKKVEPKSCDKTHTCPPCPAPELLGGPSVFLFPPKPKDTLMISRTPEVTCVVVDVSHEDPEVKFNWYVDGVEVHNAKTKPREEQYNSTYRVVSVLTVLHQDWLNGKEYKCKVSNKALPAPIEKTISKAKGQPREPQVYVYPPSRDELTKNQVSLTCLVKGFYPSDIAVEWESNGQPENNYKTTPPVLDSDGSFALVSKLTVDKSRWQQGNVFSCSVMHEALHNHYTQKSLSLSPG light: not shown not shown | 1.1 | 5.5e-05 | 50000 | -1.7 | 18
Variant 14047 (antibody, human IgG1, kappa, OA (one-armed) format; clones 8775, 7917, 4372; also called v14047) heavy: EVQLVESGGGLVQPGGSLRLSCAASGFTFQDYTMDWVRQAPGKGLEWVADVNPNSGGSIYNQRFKGRFTLSVDRSWNTLYLQMNSLRAEDTAVYYCARNLGPSFYFDYWGQGTLVTVSSASTKGPSVFPLAPSSKSTSGGTAALGCLVKDYFPEPVTVSWNSGALTSGVHTFPAVLQSSGLYSLSSVVTVPSSSLGTQTYICNVNHKPSNTKVDKKVEPKSCDKTHTCPPCPAPELLGGPSVFLFPPKPKDTLMISRTPEVTCVVVDVSHEDPEVKFNWYVDGVEVHNAKTKPREEQYNSTYRVVSVLTVLHQDWLNGKEYKCKVSNKALPAPIEKTISKAKGQPREPQVYVYPPSRDELTKNQVSLTCLVKGFYPSDIAVEWESNGQPENNYKTTPPVLDSDGSFALVSKLTVDKSRWQQGNVFSCSVMHEALHNHYTQKSLSLSPG light: not shown not shown | ~0.1 | ~7.1e-06 | 70000 | -3.1 | ~188
Variant 14042 (antibody, human IgG1, kappa, OA (one-armed) format; clones 8788, 1811, 4372; also called v14042) heavy: EVQLVESGGGLVQPGGSLRLSCAASGFTFQDYTMDWVRQAPGKGLEWVADVNPNSGYSIYNQRFKGRFTLSVDRSKNTLYLQMNSLRAEDTAVYYCARNLGPSFYFDYWGQGTLVTVSSASTKGPSVFPLAPSSKSTSGGTAALGCLVKDYFPEPVTVSWNSGALTSGVHTFPAVLQSSGLYSLSSVVTVPSSSLGTQTYICNVNHKPSNTKVDKKVEPKSCDKTHTCPPCPAPELLGGPSVFLFPPKPKDTLMISRTPEVTCVVVDVSHEDPEVKFNWYVDGVEVHNAKTKPREEQYNSTYRVVSVLTVLHQDWLNGKEYKCKVSNKALPAPIEKTISKAKGQPREPQVYVYPPSRDELTKNQVSLTCLVKGFYPSDIAVEWESNGQPENNYKTTPPVLDSDGSFALVSKLTVDKSRWQQGNVFSCSVMHEALHNHYTQKSLSLSPG light: not shown not shown | 1.2 | 5.9e-05 | 47000 | -1.6 | 15
Variant 14041 (antibody, human IgG1, kappa, OA (one-armed) format; clones 8785, 1811, 4372; also called v14041) heavy: EVQLVESGGGLVQPGGSLRLSCAASGFTFYDYTMDWVRQAPGKGLEWVADVNPNSGGSIYNQRFKGRFTLSVDRSKNTLYLQMNSLRAEDTAVYYCARNLGPWFYFDYWGQGTLVTVSSASTKGPSVFPLAPSSKSTSGGTAALGCLVKDYFPEPVTVSWNSGALTSGVHTFPAVLQSSGLYSLSSVVTVPSSSLGTQTYICNVNHKPSNTKVDKKVEPKSCDKTHTCPPCPAPELLGGPSVFLFPPKPKDTLMISRTPEVTCVVVDVSHEDPEVKFNWYVDGVEVHNAKTKPREEQYNSTYRVVSVLTVLHQDWLNGKEYKCKVSNKALPAPIEKTISKAKGQPREPQVYVYPPSRDELTKNQVSLTCLVKGFYPSDIAVEWESNGQPENNYKTTPPVLDSDGSFALVSKLTVDKSRWQQGNVFSCSVMHEALHNHYTQKSLSLSPG light: not shown not shown | 1.1 | 5.8e-05 | 51000 | -1.7 | 17
Variant 14051 (antibody, human IgG1, kappa, OA (one-armed) format; clones 7815, 8781, 4372; also called v14051) heavy: EVQLVESGGGLVQPGGSLRLSCAASGFTFQDYTMDWVRQAPGKGLEWVADVNPNSGGSIYNQRFKGRFTLSVDRSKNTLYLQMNSLRAEDTAVYYCARNLGPSFYFDYWGQGTLVTVSSASTKGPSVFPLAPSSKSTSGGTAALGCLVKDYFPEPVTVSWNSGALTSGVHTFPAVLQSSGLYSLSSVVTVPSSSLGTQTYICNVNHKPSNTKVDKKVEPKSCDKTHTCPPCPAPELLGGPSVFLFPPKPKDTLMISRTPEVTCVVVDVSHEDPEVKFNWYVDGVEVHNAKTKPREEQYNSTYRVVSVLTVLHQDWLNGKEYKCKVSNKALPAPIEKTISKAKGQPREPQVYVYPPSRDELTKNQVSLTCLVKGFYPSDIAVEWESNGQPENNYKTTPPVLDSDGSFALVSKLTVDKSRWQQGNVFSCSVMHEALHNHYTQKSLSLSPG light: not shown not shown | ~0.31 | ~1.64e-05 | 53000 | -2.4 | ~62
Variant 14049 (antibody, human IgG1, kappa, OA (one-armed) format; clones 8776, 7919, 4372; also called v14049) heavy: EVQLVESGGGLVQPGGSLRLSCAASGFTFYDYTMDWVRQAPGKGLEWVADVNPNSGGSIYNQRFKGRFTLSVDRSWNTLYLQMNSLRAEDTAVYYCARNLGPSFYFDYWGQGTLVTVSSASTKGPSVFPLAPSSKSTSGGTAALGCLVKDYFPEPVTVSWNSGALTSGVHTFPAVLQSSGLYSLSSVVTVPSSSLGTQTYICNVNHKPSNTKVDKKVEPKSCDKTHTCPPCPAPELLGGPSVFLFPPKPKDTLMISRTPEVTCVVVDVSHEDPEVKFNWYVDGVEVHNAKTKPREEQYNSTYRVVSVLTVLHQDWLNGKEYKCKVSNKALPAPIEKTISKAKGQPREPQVYVYPPSRDELTKNQVSLTCLVKGFYPSDIAVEWESNGQPENNYKTTPPVLDSDGSFALVSKLTVDKSRWQQGNVFSCSVMHEALHNHYTQKSLSLSPG light: not shown not shown | ~0.19 | ~1.4e-05 | 77000 | -2.7 | ~103
Variant 14040 (antibody, human IgG1, kappa, OA (one-armed) format; clones 8783, 1811, 4372; also called v14040) heavy: EVQLVESGGGLVQPGGSLRLSCAASGFTFTDYTMDWVRQAPGKGLEWVADVNPNSGGSIYNQRFKGRFTLSVDRSENTLYLQMNSLRAEDTAVYYCARNLGPWFYFDYWGQGTLVTVSSASTKGPSVFPLAPSSKSTSGGTAALGCLVKDYFPEPVTVSWNSGALTSGVHTFPAVLQSSGLYSLSSVVTVPSSSLGTQTYICNVNHKPSNTKVDKKVEPKSCDKTHTCPPCPAPELLGGPSVFLFPPKPKDTLMISRTPEVTCVVVDVSHEDPEVKFNWYVDGVEVHNAKTKPREEQYNSTYRVVSVLTVLHQDWLNGKEYKCKVSNKALPAPIEKTISKAKGQPREPQVYVYPPSRDELTKNQVSLTCLVKGFYPSDIAVEWESNGQPENNYKTTPPVLDSDGSFALVSKLTVDKSRWQQGNVFSCSVMHEALHNHYTQKSLSLSPG light: not shown not shown | 1.2 | 7.9e-05 | 64000 | -1.6 | 15
Variant 14044 (antibody, human IgG1, kappa, OA (one-armed) format; clones 8774, 7919, 4372; also called v14044) heavy: EVQLVESGGGLVQPGGSLRLSCAASGFTFTDYTMDWVRQAPGKGLEWVADVNPNSGGSIYNQRFKGRFTLSVDRSWNTLYLQMNSLRAEDTAVYYCARNLGPWFYFDYWGQGTLVTVSSASTKGPSVFPLAPSSKSTSGGTAALGCLVKDYFPEPVTVSWNSGALTSGVHTFPAVLQSSGLYSLSSVVTVPSSSLGTQTYICNVNHKPSNTKVDKKVEPKSCDKTHTCPPCPAPELLGGPSVFLFPPKPKDTLMISRTPEVTCVVVDVSHEDPEVKFNWYVDGVEVHNAKTKPREEQYNSTYRVVSVLTVLHQDWLNGKEYKCKVSNKALPAPIEKTISKAKGQPREPQVYVYPPSRDELTKNQVSLTCLVKGFYPSDIAVEWESNGQPENNYKTTPPVLDSDGSFALVSKLTVDKSRWQQGNVFSCSVMHEALHNHYTQKSLSLSPG light: not shown not shown | 0.33 | 3.2e-05 | 96000 | -2.4 | 57
Variant 14045 (antibody, human IgG1, kappa, OA (one-armed) format; clones 8784, 1811, 4372; also called v14045) heavy: EVQLVESGGGLVQPGGSLRLSCAASGFTFQDYTMDWVRQAPGKGLEWVADVNPNSGGSIYNQRFKGRFTLSVDRSWNTLYLQMNSLRAEDTAVYYCARNLGPWFYFDYWGQGTLVTVSSASTKGPSVFPLAPSSKSTSGGTAALGCLVKDYFPEPVTVSWNSGALTSGVHTFPAVLQSSGLYSLSSVVTVPSSSLGTQTYICNVNHKPSNTKVDKKVEPKSCDKTHTCPPCPAPELLGGPSVFLFPPKPKDTLMISRTPEVTCVVVDVSHEDPEVKFNWYVDGVEVHNAKTKPREEQYNSTYRVVSVLTVLHQDWLNGKEYKCKVSNKALPAPIEKTISKAKGQPREPQVYVYPPSRDELTKNQVSLTCLVKGFYPSDIAVEWESNGQPENNYKTTPPVLDSDGSFALVSKLTVDKSRWQQGNVFSCSVMHEALHNHYTQKSLSLSPG light: not shown not shown | ~0.084 | ~5.9e-06 | 71000 | -3.2 | ~229
Variant 14046 (antibody, human IgG1, kappa, OA (one-armed) format; clones 7844, 8781, 4372; also called v14046) heavy: EVQLVESGGGLVQPGGSLRLSCAASGFTFTDYTMDWVRQAPGKGLEWVADVNPNSGGSIYNQRFKGRFTLSVDRSWNTLYLQMNSLRAEDTAVYYCARNLGPSFYFDYWGQGTLVTVSSASTKGPSVFPLAPSSKSTSGGTAALGCLVKDYFPEPVTVSWNSGALTSGVHTFPAVLQSSGLYSLSSVVTVPSSSLGTQTYICNVNHKPSNTKVDKKVEPKSCDKTHTCPPCPAPELLGGPSVFLFPPKPKDTLMISRTPEVTCVVVDVSHEDPEVKFNWYVDGVEVHNAKTKPREEQYNSTYRVVSVLTVLHQDWLNGKEYKCKVSNKALPAPIEKTISKAKGQPREPQVYVYPPSRDELTKNQVSLTCLVKGFYPSDIAVEWESNGQPENNYKTTPPVLDSDGSFALVSKLTVDKSRWQQGNVFSCSVMHEALHNHYTQKSLSLSPG light: not shown not shown | ~0.091 | ~9.1e-06 | 100000 | -3.2 | ~212
